Experimental findings from PMC5778112 are described below.

Experiment [1] concerns the target VLA-4 (α4β1, CD49d/CD29) (human (endogenous in Jurkat and primary human CD4+ T cells)) (UniProt P13612).
The target is the same in experiment [2]. This is another data set of the same source.

UniProt P13612, sequence (P13612 34-1032, chain 1 of 2): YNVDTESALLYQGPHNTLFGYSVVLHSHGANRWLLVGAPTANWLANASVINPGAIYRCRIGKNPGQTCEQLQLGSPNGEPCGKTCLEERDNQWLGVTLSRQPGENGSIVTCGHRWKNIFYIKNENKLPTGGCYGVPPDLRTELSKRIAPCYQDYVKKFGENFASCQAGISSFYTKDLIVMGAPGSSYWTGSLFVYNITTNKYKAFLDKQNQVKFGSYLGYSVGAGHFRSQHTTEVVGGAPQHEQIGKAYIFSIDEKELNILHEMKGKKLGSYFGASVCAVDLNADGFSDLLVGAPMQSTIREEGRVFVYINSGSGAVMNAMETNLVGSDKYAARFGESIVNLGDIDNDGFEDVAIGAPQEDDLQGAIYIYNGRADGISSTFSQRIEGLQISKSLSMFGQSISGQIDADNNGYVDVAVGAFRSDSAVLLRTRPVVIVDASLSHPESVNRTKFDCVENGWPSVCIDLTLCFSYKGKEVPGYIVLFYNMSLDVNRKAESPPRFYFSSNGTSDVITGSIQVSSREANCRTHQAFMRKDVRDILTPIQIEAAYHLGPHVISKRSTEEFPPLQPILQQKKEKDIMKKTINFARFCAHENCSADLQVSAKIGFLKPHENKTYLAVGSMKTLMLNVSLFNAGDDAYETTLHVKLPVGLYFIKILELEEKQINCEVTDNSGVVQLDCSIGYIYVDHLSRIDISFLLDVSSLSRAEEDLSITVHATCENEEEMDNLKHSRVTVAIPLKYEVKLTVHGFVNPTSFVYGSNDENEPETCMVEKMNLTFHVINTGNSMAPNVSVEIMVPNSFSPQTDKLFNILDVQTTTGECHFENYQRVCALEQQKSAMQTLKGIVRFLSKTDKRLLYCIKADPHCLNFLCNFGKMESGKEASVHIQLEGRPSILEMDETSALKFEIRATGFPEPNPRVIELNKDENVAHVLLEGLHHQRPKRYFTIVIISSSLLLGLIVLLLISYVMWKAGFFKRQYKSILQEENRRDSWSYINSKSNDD
UniProt P13612, sequence (P05556 21-798, chain 2 of 2, further chain): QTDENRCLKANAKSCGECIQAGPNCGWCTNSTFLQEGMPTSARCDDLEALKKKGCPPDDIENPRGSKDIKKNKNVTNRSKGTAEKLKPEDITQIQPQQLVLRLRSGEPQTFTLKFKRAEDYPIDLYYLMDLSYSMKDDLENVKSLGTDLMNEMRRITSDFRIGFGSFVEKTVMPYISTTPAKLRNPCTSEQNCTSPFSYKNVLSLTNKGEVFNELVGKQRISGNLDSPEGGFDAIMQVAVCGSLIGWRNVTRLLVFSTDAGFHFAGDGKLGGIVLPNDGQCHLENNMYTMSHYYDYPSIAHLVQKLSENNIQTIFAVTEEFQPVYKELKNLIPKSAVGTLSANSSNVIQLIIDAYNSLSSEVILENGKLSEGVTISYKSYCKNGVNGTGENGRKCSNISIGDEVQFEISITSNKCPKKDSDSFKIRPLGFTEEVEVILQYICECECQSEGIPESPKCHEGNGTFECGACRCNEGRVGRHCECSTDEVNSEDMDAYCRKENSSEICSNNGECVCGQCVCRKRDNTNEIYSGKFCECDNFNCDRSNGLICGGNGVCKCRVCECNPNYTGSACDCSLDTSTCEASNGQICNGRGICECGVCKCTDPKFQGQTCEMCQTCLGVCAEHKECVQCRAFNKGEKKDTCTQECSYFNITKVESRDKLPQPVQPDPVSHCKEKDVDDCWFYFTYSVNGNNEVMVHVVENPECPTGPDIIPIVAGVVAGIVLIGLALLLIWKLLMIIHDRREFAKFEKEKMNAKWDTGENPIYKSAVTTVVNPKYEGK

B1: human VCAM-1-Fc chimera (Fc fusion)
chain: FKIETTPESRYLAQIGDSVSLTCSTTGCESPFFSWRTQIDSPLNGKVTNEGTTSTLTMNPVSFGNEHSYLCTATCESRKLEKGIQVEIYSFPKDPEIHLSGPLEAGKPITVKCSVADVYPFDRLEIDLLKGDHLMKSQEFLEDADRKSLETKSLEVTFTPVIEDIGKVLVCRAKLHIDEMDSVPTVRQAVKELQVYISPKNTVISVNPSTKLQEGGSVTMTCSSEGLPAPEIFWSKKLDNGNLQHLSGNATLTLIAMRMEDSGIYVCEGVNLIGKNRKEVELIVQEKPFTVEISPGPRIAAQIGDSVMLTCSVMGCESPSFSWRTQIDSPLSGKVRSEGTNSTLTLSPVSFENEHSYLCTVTCGHKKLEKGIQVELYSFPRDPEIEMSGGLVNGSSVTVSCKVPSVYPLDRLEIELLKGETILENIEFLEDTDMKSLENKSLEMTFIPTIEDTGKALVCQAKLHIDDMEFEPKQRQSTQTLYVNVAPRDTTVLVSPSSILEEGSSVNMTCLSQGFPAPKILWSRQLPNGELQPLSENATLTLISTKMEDSGVYLCEGINQAGRSRKEVELIIQVTPKDIKLTAFPSESVKEGDTVIISCTCGNVPETWIILKKKAETGDTVLKSIDGAYTIRKAQLKDAGVYECESKNKVGSQLRSLTLDVQGRENNKDYFSPE
modifications: labeled with AF-647 for patterning
Turning to B1, the actin flow rate in the lamellipodial region of Jurkat T cells (GFP-actin) spreading on coverslips coated with anti-CD3 + VCAM-1 (85–95 nm/s on anti-CD3 alone) in experiment [1] is 15 nm/s.

B2: His-tagged human VCAM-1 Fc (Fc fusion)
chain: FKIETTPESRYLAQIGDSVSLTCSTTGCESPFFSWRTQIDSPLNGKVTNEGTTSTLTMNPVSFGNEHSYLCTATCESRKLEKGIQVEIYSFPKDPEIHLSGPLEAGKPITVKCSVADVYPFDRLEIDLLKGDHLMKSQEFLEDADRKSLETKSLEVTFTPVIEDIGKVLVCRAKLHIDEMDSVPTVRQAVKELQVYISPKNTVISVNPSTKLQEGGSVTMTCSSEGLPAPEIFWSKKLDNGNLQHLSGNATLTLIAMRMEDSGIYVCEGVNLIGKNRKEVELIVQEKPFTVEISPGPRIAAQIGDSVMLTCSVMGCESPSFSWRTQIDSPLSGKVRSEGTNSTLTLSPVSFENEHSYLCTVTCGHKKLEKGIQVELYSFPRDPEIEMSGGLVNGSSVTVSCKVPSVYPLDRLEIELLKGETILENIEFLEDTDMKSLENKSLEMTFIPTIEDTGKALVCQAKLHIDDMEFEPKQRQSTQTLYVNVAPRDTTVLVSPSSILEEGSSVNMTCLSQGFPAPKILWSRQLPNGELQPLSENATLTLISTKMEDSGVYLCEGINQAGRSRKEVELIIQVTPKDIKLTAFPSESVKEGDTVIISCTCGNVPETWIILKKKAETGDTVLKSIDGAYTIRKAQLKDAGVYECESKNKVGSQLRSLTLDVQGRENNKDYFSPE
Consider B2, for which, in experiment [2], the actin flow rate in the lamellipodial region of Jurkat T cells on supported lipid bilayers with mobile anti-CD3 + VCAM-1 turned out to be 60 nm/s.
